Data on four molecules can be found in US20190077860A1 (EISAI R AND D MANAGEMENT, published 2019).

Holding throughout (test): ELISA
On the technique in general: In an ELISA, binding on a coated surface is turned into a signal by an enzyme label.

Experiment [1] deals with T1, human EphB2 extracellular region-SEAP-His protein (human, UniProt P29323 19-543).
T1 construct: extracellular domain; also called hEphB2-SEAP-His
T1 sequence (looked up): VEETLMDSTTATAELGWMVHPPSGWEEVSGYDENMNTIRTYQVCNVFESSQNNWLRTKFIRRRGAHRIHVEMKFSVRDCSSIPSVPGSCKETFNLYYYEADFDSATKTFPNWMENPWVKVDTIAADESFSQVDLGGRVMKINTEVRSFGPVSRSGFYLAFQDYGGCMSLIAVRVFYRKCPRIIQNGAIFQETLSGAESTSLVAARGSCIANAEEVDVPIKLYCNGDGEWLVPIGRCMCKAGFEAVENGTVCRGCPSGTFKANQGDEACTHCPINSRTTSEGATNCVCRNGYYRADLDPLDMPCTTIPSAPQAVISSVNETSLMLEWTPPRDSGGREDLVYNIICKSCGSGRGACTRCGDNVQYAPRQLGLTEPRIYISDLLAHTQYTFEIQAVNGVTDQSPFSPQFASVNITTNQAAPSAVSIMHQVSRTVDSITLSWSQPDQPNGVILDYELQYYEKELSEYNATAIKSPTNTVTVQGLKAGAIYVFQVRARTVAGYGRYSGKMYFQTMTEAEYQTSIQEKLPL

Experiment [2] deals with T2, human EphA4 extracellular region-SEAP-His protein (human, UniProt P54764 20-547).
T2 construct: also called hEphA4-SEAP-His
T2 sequence (P54764 20-547): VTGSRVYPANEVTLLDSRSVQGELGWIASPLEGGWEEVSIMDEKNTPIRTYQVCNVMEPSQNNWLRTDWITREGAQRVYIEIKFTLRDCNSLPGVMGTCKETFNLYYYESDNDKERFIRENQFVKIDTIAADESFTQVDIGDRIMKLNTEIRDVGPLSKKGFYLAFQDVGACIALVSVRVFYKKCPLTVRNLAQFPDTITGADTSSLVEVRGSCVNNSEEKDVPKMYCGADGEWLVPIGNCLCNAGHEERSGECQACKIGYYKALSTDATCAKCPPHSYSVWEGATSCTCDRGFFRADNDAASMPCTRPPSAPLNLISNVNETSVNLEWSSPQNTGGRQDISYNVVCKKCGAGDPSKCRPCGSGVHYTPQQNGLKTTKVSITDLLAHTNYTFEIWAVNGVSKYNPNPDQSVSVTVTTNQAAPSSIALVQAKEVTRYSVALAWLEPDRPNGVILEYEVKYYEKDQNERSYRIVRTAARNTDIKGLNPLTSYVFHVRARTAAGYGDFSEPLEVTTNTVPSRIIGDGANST

The target in experiment [3] is T3, human EphA1 extracellular region-SEAP-His protein (human, UniProt P21709 26-547).
T3 construct: extracellular domain; also called hEphA1-SEAP-His
T3 sequence (looked up): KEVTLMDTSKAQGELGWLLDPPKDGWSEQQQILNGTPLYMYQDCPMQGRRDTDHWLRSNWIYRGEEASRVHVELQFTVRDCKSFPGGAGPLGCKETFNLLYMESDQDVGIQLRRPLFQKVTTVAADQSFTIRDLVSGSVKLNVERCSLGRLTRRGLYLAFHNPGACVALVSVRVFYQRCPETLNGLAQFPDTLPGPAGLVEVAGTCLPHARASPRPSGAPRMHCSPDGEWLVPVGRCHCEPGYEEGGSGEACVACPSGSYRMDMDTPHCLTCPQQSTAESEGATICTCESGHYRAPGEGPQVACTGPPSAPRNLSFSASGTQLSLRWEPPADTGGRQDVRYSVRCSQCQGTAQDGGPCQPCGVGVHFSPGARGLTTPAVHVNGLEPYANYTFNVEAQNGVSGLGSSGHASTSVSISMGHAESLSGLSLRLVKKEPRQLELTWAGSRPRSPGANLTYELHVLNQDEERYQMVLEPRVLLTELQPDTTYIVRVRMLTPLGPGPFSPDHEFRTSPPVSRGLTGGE

In experiment [4] the target is T4, human EphA6 extracellular region-SEAP-His protein (human, UniProt Q9UF33 23-550).
T4 construct: extracellular domain; also called hEphA6-SEAP-His
T4 sequence (looked up): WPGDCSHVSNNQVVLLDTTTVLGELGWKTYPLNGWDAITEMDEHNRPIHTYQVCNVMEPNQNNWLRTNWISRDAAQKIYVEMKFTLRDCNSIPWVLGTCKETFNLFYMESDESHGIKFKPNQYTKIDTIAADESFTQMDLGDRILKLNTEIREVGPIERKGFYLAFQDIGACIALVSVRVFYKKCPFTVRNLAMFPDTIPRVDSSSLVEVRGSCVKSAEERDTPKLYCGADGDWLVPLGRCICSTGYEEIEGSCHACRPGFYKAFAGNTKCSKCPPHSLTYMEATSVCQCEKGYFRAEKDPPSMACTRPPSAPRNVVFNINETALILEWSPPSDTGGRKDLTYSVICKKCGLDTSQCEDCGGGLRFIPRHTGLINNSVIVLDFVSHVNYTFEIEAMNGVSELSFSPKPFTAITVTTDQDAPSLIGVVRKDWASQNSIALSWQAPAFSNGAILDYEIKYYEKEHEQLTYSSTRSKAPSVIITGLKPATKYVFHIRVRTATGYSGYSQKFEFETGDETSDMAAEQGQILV

In another experiment the target is SEAP-His (UniProt P05187 23-511).
Chain of SEAP-His (P05187 23-511): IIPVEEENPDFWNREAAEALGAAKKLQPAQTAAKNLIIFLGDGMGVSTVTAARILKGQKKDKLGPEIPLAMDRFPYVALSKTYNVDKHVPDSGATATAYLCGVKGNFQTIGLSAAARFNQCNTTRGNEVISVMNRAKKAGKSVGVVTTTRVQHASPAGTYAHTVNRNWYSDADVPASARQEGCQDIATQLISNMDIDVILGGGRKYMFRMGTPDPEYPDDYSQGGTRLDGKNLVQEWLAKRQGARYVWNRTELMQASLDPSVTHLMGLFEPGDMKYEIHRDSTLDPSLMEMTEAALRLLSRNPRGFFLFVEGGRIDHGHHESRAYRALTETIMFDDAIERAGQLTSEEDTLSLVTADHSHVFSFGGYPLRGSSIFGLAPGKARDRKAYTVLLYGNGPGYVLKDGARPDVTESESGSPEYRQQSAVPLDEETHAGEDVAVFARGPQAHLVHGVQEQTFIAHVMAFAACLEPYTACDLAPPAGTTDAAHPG
The target in experiment [5] is T5, human EphB3 extracellular region-SEAP-His protein (human, UniProt P54753 34-559).
T5 construct: extracellular domain; also called hEphB3-SEAP-His
T5 sequence (looked up): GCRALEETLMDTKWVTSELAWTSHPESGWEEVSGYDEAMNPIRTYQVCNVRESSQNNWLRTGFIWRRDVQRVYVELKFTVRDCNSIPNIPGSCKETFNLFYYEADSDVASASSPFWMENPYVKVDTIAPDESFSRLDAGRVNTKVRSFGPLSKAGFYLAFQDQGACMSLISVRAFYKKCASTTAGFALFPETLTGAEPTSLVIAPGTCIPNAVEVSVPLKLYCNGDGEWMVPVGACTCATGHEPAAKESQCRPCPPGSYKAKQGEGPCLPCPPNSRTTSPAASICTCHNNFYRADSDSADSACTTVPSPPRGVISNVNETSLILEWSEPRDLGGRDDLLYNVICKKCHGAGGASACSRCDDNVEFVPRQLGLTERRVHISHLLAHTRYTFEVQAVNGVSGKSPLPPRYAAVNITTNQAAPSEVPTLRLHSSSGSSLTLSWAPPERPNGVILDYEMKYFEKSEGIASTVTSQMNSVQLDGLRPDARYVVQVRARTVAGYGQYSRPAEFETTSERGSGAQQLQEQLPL

B1: humanized antibody No. 159 (antibody, human IgG2)
heavy: QVQLVQSGSELKKPGASVKVSCKASGYTFTDYSMHWVRQAPGQGLKWMGWINTETGEPTYADDFKGRFVFSLDTSVSTAYLQISSLKAEDTAVYYCARIPLYYYGSRYWYFDVWGQGTTVTVSSASTKGPSVFPLAPSSRSTSESTAALGCLVKDYFPEPVTVSWNSGALTSGVHTFPAVLQSSGLYSLSSVVTVPSSNFGTQTYTCNVDHKPSNTKVDKTVERKSCVECPPCPAPPAAAPSVFLFPPKPKDTLMISRTPEVTCVVVDVSHEDPEVQFNWYVDGVEVHNAKTKPREEQFNSTFRVVSVLTVVHQDWLNGKEYKCKVSNKGLPAPIEKTISKTKGQPREPQVYTLPPSREEMTKNQVSLTCLVKGFYPSDIAVEWESNGQPENNYKTTPPMLDSDGSFFLYSKLTVDKSRWQQGNVFSCSVMHEALHNHYTQKSLSLSPG
light: DIQMTQSPSSLSASVGDRVTITCRASENIYRNLAWYQQKPGKAPQLLLYAATNLADGVPSRFSGSGSGTDYTLTISSLQPEDFATYYCQHFWGTPWTFGQGTKVEIKRTVAAPSVFIFPPSDEQLKSGTASVVCLLNNFYPREAKVQWKVDNALQSGNSQESVTEQDSKDSTYSLSSTLTLSKADYEKHKVYACEVTHQGLSSPVTKSFNRGEC
notes: human Ig kappa; also called L1-6/HK2
Consider B1, for which the “A450 as % of hEphA4-SEAP-His” value in experiment [1] came out at 5.4%; in experiment [2], 100%; in experiment [3] it was 5.4%; in experiment [4], 7.6%; with SEAP-His it was 5.3%; in experiment [5] it was 5.5%.

B2: humanized antibody No. 134 (antibody, human IgG2)
heavy: QVQLVQSGSELKKPGASVKVSCKASGYTFTDYSMHWVRQAPGQGLKWMGWINTETGEPTYAQGFTGRFVFSLDTSVSTAYLQISSLKAEDTAVYYCARIPLYYYGSRYWYFDVWGQGTTVTVSSASTKGPSVFPLAPSSRSTSESTAALGCLVKDYFPEPVTVSWNSGALTSGVHTFPAVLQSSGLYSLSSVVTVPSSNFGTQTYTCNVDHKPSNTKVDKTVERKSCVECPPCPAPPAAAPSVFLFPPKPKDTLMISRTPEVTCVVVDVSHEDPEVQFNWYVDGVEVHNAKTKPREEQFNSTFRVVSVLTVVHQDWLNGKEYKCKVSNKGLPAPIEKTISKTKGQPREPQVYTLPPSREEMTKNQVSLTCLVKGFYPSDIAVEWESNGQPENNYKTTPPMLDSDGSFFLYSKLTVDKSRWQQGNVFSCSVMHEALHNHYTQKSLSLSPG
light: EIVMTQSPATLSVSPGERATLSCRASENIYRNLAWYQQKPGQSPRLLIYAATNLADGIPARFSGSGSGTEYTLTISSLQSEDFAVYYCQHFWGTPWTFGQGTKVEIKRTVAAPSVFIFPPSDEQLKSGTASVVCLLNNFYPREAKVQWKVDNALQSGNSQESVTEQDSKDSTYSLSSTLTLSKADYEKHKVYACEVTHQGLSSPVTKSFNRGEC
notes: human Ig kappa; also called L2-4/HA2
For the molecule B2, the “A450 as % of hEphA4-SEAP-His” value is 5.1% in experiment [1]; 100% in experiment [2]; 5.1% in experiment [3]; 9.6% in experiment [4]; 5.1% with SEAP-His; 5.2% in experiment [5].

B3: humanized antibody No. 160 (antibody, human IgG2)
heavy: QIQLVQSGSELKKPGASVKVSCKASGYTFTDYSMHWVRQAPGQGLKWMGWINTETGEPTYADDFKGRFVFSLDTSVSTAYLQISSLKAEDTAVYYCARIPLYYYGSRYWYFDVWGQGTTVTVSSASTKGPSVFPLAPSSRSTSESTAALGCLVKDYFPEPVTVSWNSGALTSGVHTFPAVLQSSGLYSLSSVVTVPSSNFGTQTYTCNVDHKPSNTKVDKTVERKSCVECPPCPAPPAAAPSVFLFPPKPKDTLMISRTPEVTCVVVDVSHEDPEVQFNWYVDGVEVHNAKTKPREEQFNSTFRVVSVLTVVHQDWLNGKEYKCKVSNKGLPAPIEKTISKTKGQPREPQVYTLPPSREEMTKNQVSLTCLVKGFYPSDIAVEWESNGQPENNYKTTPPMLDSDGSFFLYSKLTVDKSRWQQGNVFSCSVMHEALHNHYTQKSLSLSPG
light: DIQMTQSPSSLSASVGDRVTITCRASENIYRNLAWYQQKPGKAPQLLLYAATNLADGVPSRFSGSGSGTDYTLTISSLQPEDFATYYCQHFWGTPWTFGQGTKVEIKRTVAAPSVFIFPPSDEQLKSGTASVVCLLNNFYPREAKVQWKVDNALQSGNSQESVTEQDSKDSTYSLSSTLTLSKADYEKHKVYACEVTHQGLSSPVTKSFNRGEC
notes: human Ig kappa; also called L1-6/HK4
Consider B3, for which the “A450 as % of hEphA4-SEAP-His” value in experiment [1] was determined as 6.2%; in experiment [2] it was 100%; in experiment [3], 6.5%; in experiment [4], 8.7%; in the experiment with SEAP-His, 6.3%; in experiment [5], 6.2%.

B4: humanized antibody No. 132 (antibody, human IgG2)
heavy: QIQLVQSGSELKKPGASVKVSCKASGYTFTDYSMHWVRQAPGQGLKWMGWINTETGEPTYAQGFTGRFVFSLDTSVSTAYLQISSLKAEDTAVYYCARIPLYYYGSRYWYFDVWGQGTTVTVSSASTKGPSVFPLAPSSRSTSESTAALGCLVKDYFPEPVTVSWNSGALTSGVHTFPAVLQSSGLYSLSSVVTVPSSNFGTQTYTCNVDHKPSNTKVDKTVERKSCVECPPCPAPPAAAPSVFLFPPKPKDTLMISRTPEVTCVVVDVSHEDPEVQFNWYVDGVEVHNAKTKPREEQFNSTFRVVSVLTVVHQDWLNGKEYKCKVSNKGLPAPIEKTISKTKGQPREPQVYTLPPSREEMTKNQVSLTCLVKGFYPSDIAVEWESNGQPENNYKTTPPMLDSDGSFFLYSKLTVDKSRWQQGNVFSCSVMHEALHNHYTQKSLSLSPG
light: EIVMTQSPATLSVSPGERATLSCRASENIYRNLAWYQQKPGQSPRLLIYAATNLADGIPARFSGSGSGTEYTLTISSLQSEDFAVYYCQHFWGTPWTFGQGTKVEIKRTVAAPSVFIFPPSDEQLKSGTASVVCLLNNFYPREAKVQWKVDNALQSGNSQESVTEQDSKDSTYSLSSTLTLSKADYEKHKVYACEVTHQGLSSPVTKSFNRGEC
notes: human Ig kappa; also called L2-4/HA4
On to B4, for which the “A450 as % of hEphA4-SEAP-His” value in experiment [1] was 4.7%; in experiment [2], 100%; in experiment [3], 4.8%; in experiment [4] it was 9.7%; with SEAP-His it was 4.9%; in experiment [5] it was 4.7%.
